Assay results taken from patent US20070071764A1.
Like-named read-outs stand apart in the source and are kept apart here. Where no end group is shown, it is not given here.

Legend:
Assay in all cases: cell-based or functional assay
[1] = biological target: human Kv1.1 channel (human) (UniProt Q09470)
[2] = biological target: human Kv1.3 channel (human) (UniProt P22001)
[3] = biological target: human Kv1.3 channel (human) (UniProt P22001); remark: listed apart in the source

Sequence of human Kv1.3 channel (human) (P22001 whole entry): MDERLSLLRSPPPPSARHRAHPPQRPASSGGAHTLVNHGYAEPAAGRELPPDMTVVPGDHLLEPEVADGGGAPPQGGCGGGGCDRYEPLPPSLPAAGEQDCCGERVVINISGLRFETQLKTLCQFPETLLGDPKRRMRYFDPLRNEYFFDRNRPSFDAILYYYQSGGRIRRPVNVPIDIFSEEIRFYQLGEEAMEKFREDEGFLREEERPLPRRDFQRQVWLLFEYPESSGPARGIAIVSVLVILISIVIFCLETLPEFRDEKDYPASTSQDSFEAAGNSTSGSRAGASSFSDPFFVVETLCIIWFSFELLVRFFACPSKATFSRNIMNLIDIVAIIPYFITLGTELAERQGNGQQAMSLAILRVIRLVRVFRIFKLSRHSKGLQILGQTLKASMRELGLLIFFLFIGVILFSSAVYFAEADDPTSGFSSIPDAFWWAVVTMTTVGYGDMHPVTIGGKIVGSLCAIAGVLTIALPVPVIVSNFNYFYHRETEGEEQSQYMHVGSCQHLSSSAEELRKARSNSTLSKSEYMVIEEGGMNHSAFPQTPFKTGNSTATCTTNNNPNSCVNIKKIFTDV
Sequence of human Kv1.1 channel (human) (Q09470 whole entry): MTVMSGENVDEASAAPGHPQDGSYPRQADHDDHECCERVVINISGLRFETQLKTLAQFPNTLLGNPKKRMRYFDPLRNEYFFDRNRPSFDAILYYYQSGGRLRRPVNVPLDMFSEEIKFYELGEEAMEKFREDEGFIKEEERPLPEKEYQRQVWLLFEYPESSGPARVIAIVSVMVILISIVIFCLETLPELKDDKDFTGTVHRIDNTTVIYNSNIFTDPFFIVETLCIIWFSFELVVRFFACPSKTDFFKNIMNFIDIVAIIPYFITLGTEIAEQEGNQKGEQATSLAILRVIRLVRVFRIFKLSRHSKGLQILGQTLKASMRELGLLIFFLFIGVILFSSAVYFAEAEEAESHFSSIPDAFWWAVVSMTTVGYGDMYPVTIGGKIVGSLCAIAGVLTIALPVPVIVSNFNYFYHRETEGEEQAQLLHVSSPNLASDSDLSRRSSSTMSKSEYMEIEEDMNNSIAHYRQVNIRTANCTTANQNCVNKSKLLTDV

Synthetic OSK1 toxin peptide
hKv1.1: IC50 (electrophysiology, HEK293) [1]: 160 pM
hKv1.3: IC50 (whole-cell patch clamp, HEK293) [2]: 0.039 nM
selectivity ratio hKv1.1/hKv1.3 (IC50 on hKv1.1 over IC50 on hKv1.3) [2]: 4

PEG-OSK1 (peptide)
peak IC50 (whole-cell patch clamp, HEK293 stably expressing human Kv1.3) [2]: 1.28 nM

Fc-L10-OSK1 (CHO-derived peptibody) (Fc fusion)
hKv1.1: IC50 (electrophysiology, HEK293) [1]: 41600 pM

Fc-L25-ShK[2-35] peptibody (Fc fusion)
IC50, whole cell patch clamp electrophysiology on HEK293/Kv1.3 cells [2]: 150 pM

RSCIDTIPKSRCTAFQCKHSMKYRLSFCRKTCGTC (not fully specified (N-terminus); ends and bridges not checked) [20K PEG-ShK[1-35]]
peak IC50 (whole-cell patch clamp, HEK293 stably expressing human Kv1.3) [3]: 0.169 nM
